Test results taken from patent US20140087995A1 (published 2014).
Numbered stars: 1 amine (or outer) side, 2 acyl side, 3 side chain; on linkers, the order of the positions; unused ones are H or OH. Bridge positions count the residues as written; N and C are the ends. Side chains are listed from the residue outwards. Ends that are not written are not given here. * marks the point of attachment. C20 diacid = O=C(O)CCCCCCCCCCCCCCCCCCC(=O)*; γGlu = O=C(O)[C@H](CCC(=O)[*:2])N[*:1]

T1: human calcitonin receptor (human, UniProt P30988 25-474)
T1 construct: whole, on cells; Assayed as cell membranes of BHK tk'ts 13 cells stably transfected with the human calcitonin receptor (Assay VII); also called hCTR; hCT
T1 sequence (looked up): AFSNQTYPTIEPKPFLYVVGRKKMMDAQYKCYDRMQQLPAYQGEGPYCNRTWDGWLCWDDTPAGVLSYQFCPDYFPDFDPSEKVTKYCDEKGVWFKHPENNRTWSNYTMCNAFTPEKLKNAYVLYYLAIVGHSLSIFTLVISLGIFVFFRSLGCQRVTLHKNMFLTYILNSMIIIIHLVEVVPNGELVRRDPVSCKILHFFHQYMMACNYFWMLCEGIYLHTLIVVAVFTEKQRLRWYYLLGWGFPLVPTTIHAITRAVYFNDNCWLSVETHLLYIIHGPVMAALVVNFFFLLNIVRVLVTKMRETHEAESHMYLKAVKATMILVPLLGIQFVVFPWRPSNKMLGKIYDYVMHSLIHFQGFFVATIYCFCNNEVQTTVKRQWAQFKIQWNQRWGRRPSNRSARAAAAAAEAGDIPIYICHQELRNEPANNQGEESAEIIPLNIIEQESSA

B1: N^ε1-[(4S)-4-carboxy-4-(19-carboxynonadecanoylamino)butanoyl]-[His14,Arg17,Pro21,Pro27,Pro31]-h-amylin (peptide)
peptide: K([γGlu-C20 diacid])CNTATCATQRLAHFLRHSSPNFGAIPSSTPVGSNTY-NH2
modifications: disulfide 2-7; N-terminus assumed
SMILES: CC[C@H](C)[C@H](NC(=O)[C@H](C)NC(=O)CNC(=O)[C@H](Cc1ccccc1)NC(=O)[C@H](CC(N)=O)NC(=O)[C@@H]1CCCN1C(=O)[C@H](CO)NC(=O)[C@H](CO)NC(=O)[C@H](Cc1c[nH]cn1)NC(=O)[C@H](CCCNC(=N)N)NC(=O)[C@H](CC(C)C)NC(=O)[C@H](Cc1ccccc1)NC(=O)[C@H](Cc1c[nH]cn1)NC(=O)[C@H](C)NC(=O)[C@H](CC(C)C)NC(=O)[C@H](CCCNC(=N)N)NC(=O)[C@H](CCC(N)=O)NC(=O)[C@@H](NC(=O)[C@H](C)NC(=O)[C@@H]1CSSC[C@H](NC(=O)[C@@H](N)CCCCNC(=O)CC[C@H](NC(=O)CCCCCCCCCCCCCCCCCCC(=O)O)C(=O)O)C(=O)N[C@@H](CC(N)=O)C(=O)N[C@@H]([C@@H](C)O)C(=O)N[C@@H](C)C(=O)N[C@@H]([C@@H](C)O)C(=O)N1)[C@@H](C)O)C(=O)N1CCC[C@H]1C(=O)N[C@@H](CO)C(=O)N[C@@H](CO)C(=O)N[C@H](C(=O)N1CCC[C@H]1C(=O)N[C@H](C(=O)NCC(=O)N[C@@H](CO)C(=O)N[C@@H](CC(N)=O)C(=O)N[C@H](C(=O)N[C@@H](Cc1ccc(O)cc1)C(N)=O)[C@@H](C)O)C(C)C)[C@@H](C)O
notes: also called compound 62
B2: N^ε1-[(4S)-4-carboxy-4-[[(4S)-4-carboxy-4-(19-carboxynonadecanoylamino)butanoyl]amino]butanoyl]-[Glu14,Arg17,Pro21,Pro27,Arg35]-h-amylin (peptide)
peptide: K([γGlu-γGlu-C20 diacid])CNTATCATQRLAEFLRHSSPNFGAIPSSTNVGSRTY-NH2
modifications: disulfide 2-7; N-terminus assumed
SMILES: CC[C@H](C)[C@H](NC(=O)[C@H](C)NC(=O)CNC(=O)[C@H](Cc1ccccc1)NC(=O)[C@H](CC(N)=O)NC(=O)[C@@H]1CCCN1C(=O)[C@H](CO)NC(=O)[C@H](CO)NC(=O)[C@H](Cc1c[nH]cn1)NC(=O)[C@H](CCCNC(=N)N)NC(=O)[C@H](CC(C)C)NC(=O)[C@H](Cc1ccccc1)NC(=O)[C@H](CCC(=O)O)NC(=O)[C@H](C)NC(=O)[C@H](CC(C)C)NC(=O)[C@H](CCCNC(=N)N)NC(=O)[C@H](CCC(N)=O)NC(=O)[C@@H](NC(=O)[C@H](C)NC(=O)[C@@H]1CSSC[C@H](NC(=O)[C@@H](N)CCCCNC(=O)CC[C@H](NC(=O)CC[C@H](NC(=O)CCCCCCCCCCCCCCCCCCC(=O)O)C(=O)O)C(=O)O)C(=O)N[C@@H](CC(N)=O)C(=O)N[C@@H]([C@@H](C)O)C(=O)N[C@@H](C)C(=O)N[C@@H]([C@@H](C)O)C(=O)N1)[C@@H](C)O)C(=O)N1CCC[C@H]1C(=O)N[C@@H](CO)C(=O)N[C@@H](CO)C(=O)N[C@H](C(=O)N[C@@H](CC(N)=O)C(=O)N[C@H](C(=O)NCC(=O)N[C@@H](CO)C(=O)N[C@@H](CCCNC(=N)N)C(=O)N[C@H](C(=O)N[C@@H](Cc1ccc(O)cc1)C(N)=O)[C@@H](C)O)C(C)C)[C@@H](C)O
notes: also called compound 89
B3: N^ε1-[(4S)-4-carboxy-4-[[(4S)-4-carboxy-4-(19-carboxynonadecanoylamino)butanoyl]amino]butanoyl]-[Glu14,Arg17,Pro21,Pro27,Arg34]-h-amylin (peptide)
peptide: K([γGlu-γGlu-C20 diacid])CNTATCATQRLAEFLRHSSPNFGAIPSSTNVGRNTY-NH2
modifications: disulfide 2-7; N-terminus assumed
SMILES: CC[C@H](C)[C@H](NC(=O)[C@H](C)NC(=O)CNC(=O)[C@H](Cc1ccccc1)NC(=O)[C@H](CC(N)=O)NC(=O)[C@@H]1CCCN1C(=O)[C@H](CO)NC(=O)[C@H](CO)NC(=O)[C@H](Cc1c[nH]cn1)NC(=O)[C@H](CCCNC(=N)N)NC(=O)[C@H](CC(C)C)NC(=O)[C@H](Cc1ccccc1)NC(=O)[C@H](CCC(=O)O)NC(=O)[C@H](C)NC(=O)[C@H](CC(C)C)NC(=O)[C@H](CCCNC(=N)N)NC(=O)[C@H](CCC(N)=O)NC(=O)[C@@H](NC(=O)[C@H](C)NC(=O)[C@@H]1CSSC[C@H](NC(=O)[C@@H](N)CCCCNC(=O)CC[C@H](NC(=O)CC[C@H](NC(=O)CCCCCCCCCCCCCCCCCCC(=O)O)C(=O)O)C(=O)O)C(=O)N[C@@H](CC(N)=O)C(=O)N[C@@H]([C@@H](C)O)C(=O)N[C@@H](C)C(=O)N[C@@H]([C@@H](C)O)C(=O)N1)[C@@H](C)O)C(=O)N1CCC[C@H]1C(=O)N[C@@H](CO)C(=O)N[C@@H](CO)C(=O)N[C@H](C(=O)N[C@@H](CC(N)=O)C(=O)N[C@H](C(=O)NCC(=O)N[C@@H](CCCNC(=N)N)C(=O)N[C@@H](CC(N)=O)C(=O)N[C@H](C(=O)N[C@@H](Cc1ccc(O)cc1)C(N)=O)[C@@H](C)O)C(C)C)[C@@H](C)O
notes: also called compound 88
B4: N^ε1-[(4S)-4-carboxy-4-[[(4S)-4-carboxy-4-(19-carboxynonadecanoylamino)butanoyl]amino]butanoyl]-[Arg17,Pro21,Pro27,His34]-h-amylin (peptide)
peptide: K([γGlu-γGlu-C20 diacid])CNTATCATQRLANFLRHSSPNFGAIPSSTNVGHNTY-NH2
modifications: disulfide 2-7; N-terminus assumed
SMILES: CC[C@H](C)[C@H](NC(=O)[C@H](C)NC(=O)CNC(=O)[C@H](Cc1ccccc1)NC(=O)[C@H](CC(N)=O)NC(=O)[C@@H]1CCCN1C(=O)[C@H](CO)NC(=O)[C@H](CO)NC(=O)[C@H](Cc1c[nH]cn1)NC(=O)[C@H](CCCNC(=N)N)NC(=O)[C@H](CC(C)C)NC(=O)[C@H](Cc1ccccc1)NC(=O)[C@H](CC(N)=O)NC(=O)[C@H](C)NC(=O)[C@H](CC(C)C)NC(=O)[C@H](CCCNC(=N)N)NC(=O)[C@H](CCC(N)=O)NC(=O)[C@@H](NC(=O)[C@H](C)NC(=O)[C@@H]1CSSC[C@H](NC(=O)[C@@H](N)CCCCNC(=O)CC[C@H](NC(=O)CC[C@H](NC(=O)CCCCCCCCCCCCCCCCCCC(=O)O)C(=O)O)C(=O)O)C(=O)N[C@@H](CC(N)=O)C(=O)N[C@@H]([C@@H](C)O)C(=O)N[C@@H](C)C(=O)N[C@@H]([C@@H](C)O)C(=O)N1)[C@@H](C)O)C(=O)N1CCC[C@H]1C(=O)N[C@@H](CO)C(=O)N[C@@H](CO)C(=O)N[C@H](C(=O)N[C@@H](CC(N)=O)C(=O)N[C@H](C(=O)NCC(=O)N[C@@H](Cc1c[nH]cn1)C(=O)N[C@@H](CC(N)=O)C(=O)N[C@H](C(=O)N[C@@H](Cc1ccc(O)cc1)C(N)=O)[C@@H](C)O)C(C)C)[C@@H](C)O
notes: also called compound 86
B5: N^ε1-[(4S)-4-carboxy-4-[[(4S)-4-carboxy-4-(19-carboxynonadecanoylamino)butanoyl]amino]butanoyl]-[Glu14,Arg17,Pro21,Pro27,His34]-h-amylin (peptide)
peptide: K([γGlu-γGlu-C20 diacid])CNTATCATQRLAEFLRHSSPNFGAIPSSTNVGHNTY-NH2
modifications: disulfide 2-7; N-terminus assumed
SMILES: CC[C@H](C)[C@H](NC(=O)[C@H](C)NC(=O)CNC(=O)[C@H](Cc1ccccc1)NC(=O)[C@H](CC(N)=O)NC(=O)[C@@H]1CCCN1C(=O)[C@H](CO)NC(=O)[C@H](CO)NC(=O)[C@H](Cc1c[nH]cn1)NC(=O)[C@H](CCCNC(=N)N)NC(=O)[C@H](CC(C)C)NC(=O)[C@H](Cc1ccccc1)NC(=O)[C@H](CCC(=O)O)NC(=O)[C@H](C)NC(=O)[C@H](CC(C)C)NC(=O)[C@H](CCCNC(=N)N)NC(=O)[C@H](CCC(N)=O)NC(=O)[C@@H](NC(=O)[C@H](C)NC(=O)[C@@H]1CSSC[C@H](NC(=O)[C@@H](N)CCCCNC(=O)CC[C@H](NC(=O)CC[C@H](NC(=O)CCCCCCCCCCCCCCCCCCC(=O)O)C(=O)O)C(=O)O)C(=O)N[C@@H](CC(N)=O)C(=O)N[C@@H]([C@@H](C)O)C(=O)N[C@@H](C)C(=O)N[C@@H]([C@@H](C)O)C(=O)N1)[C@@H](C)O)C(=O)N1CCC[C@H]1C(=O)N[C@@H](CO)C(=O)N[C@@H](CO)C(=O)N[C@H](C(=O)N[C@@H](CC(N)=O)C(=O)N[C@H](C(=O)NCC(=O)N[C@@H](Cc1c[nH]cn1)C(=O)N[C@@H](CC(N)=O)C(=O)N[C@H](C(=O)N[C@@H](Cc1ccc(O)cc1)C(N)=O)[C@@H](C)O)C(C)C)[C@@H](C)O
notes: also called compound 87
B6: N^ε21-[(4S)-4-carboxy-4-[[(4S)-4-carboxy-4-(19-carboxynonadecanoylamino)butanoyl]amino]butanoyl]-[Asp14,Arg17,Lys21,Pro27,Asp35]-h-amylin (peptide)
peptide: KCNTATCATQRLADFLRHSSK([γGlu-γGlu-C20 diacid])NFGAIPSSTNVGSDTY-NH2
modifications: disulfide 2-7; N-terminus assumed
SMILES: CC[C@H](C)[C@H](NC(=O)[C@H](C)NC(=O)CNC(=O)[C@H](Cc1ccccc1)NC(=O)[C@H](CC(N)=O)NC(=O)[C@H](CCCCNC(=O)CC[C@H](NC(=O)CC[C@H](NC(=O)CCCCCCCCCCCCCCCCCCC(=O)O)C(=O)O)C(=O)O)NC(=O)[C@H](CO)NC(=O)[C@H](CO)NC(=O)[C@H](Cc1c[nH]cn1)NC(=O)[C@H](CCCNC(=N)N)NC(=O)[C@H](CC(C)C)NC(=O)[C@H](Cc1ccccc1)NC(=O)[C@H](CC(=O)O)NC(=O)[C@H](C)NC(=O)[C@H](CC(C)C)NC(=O)[C@H](CCCNC(=N)N)NC(=O)[C@H](CCC(N)=O)NC(=O)[C@@H](NC(=O)[C@H](C)NC(=O)[C@@H]1CSSC[C@H](NC(=O)[C@@H](N)CCCCN)C(=O)N[C@@H](CC(N)=O)C(=O)N[C@@H]([C@@H](C)O)C(=O)N[C@@H](C)C(=O)N[C@@H]([C@@H](C)O)C(=O)N1)[C@@H](C)O)C(=O)N1CCC[C@H]1C(=O)N[C@@H](CO)C(=O)N[C@@H](CO)C(=O)N[C@H](C(=O)N[C@@H](CC(N)=O)C(=O)N[C@H](C(=O)NCC(=O)N[C@@H](CO)C(=O)N[C@@H](CC(=O)O)C(=O)N[C@H](C(=O)N[C@@H](Cc1ccc(O)cc1)C(N)=O)[C@@H](C)O)C(C)C)[C@@H](C)O
notes: also called compound 59

Columns and labels:
[1] = target: T1, human calcitonin receptor; test: IC50 at hCTR divided by IC50 at hAmylin-R (SPA competition assays V and VII)
In short: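 Membranes (35 ng/μL final) + SPA beads, 50 mM Hepes pH 7.4 buffer with 1 mM CaCl2, 5 mM MgCl₂, 0.1% OA, 0.02% Tween20; 120 min, 25° C, shaking; centrifuged, counted; IC₅₀ by one-site binding competition.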

[2] = target: T1, human calcitonin receptor; test: SPA competition vs 125I-calcitonin, membranes of BHK cells with human calcitonin receptor (Assay VII)
In short: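 BHK hCTR membranes 35 ng/μL + SPA beads 0.05 mg/well; buffer 50 mM Hepes pH 7.4, 1 mM CaCl2, 5 mM MgCl₂, 0.1% OA, 0.02% Tween20. 120 min, 25° C., shaking. Scintillation count; IC50 by one-site binding competition.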

Row | Binder | Ratio hCT/hAmylin binding [1] | IC50 [2]
1 | B1 | 63 | 6.17 nM
2 | B2 | 28 | 32.5 nM
3 | B3 | 46.5 | 34.9 nM
4 | B4 | 159 | 133 nM
5 | B5 | 35.6 | 22.5 nM
6 | B6 | 4.3 | 5.14 nM
